What all share (assay): cell ELISA
In general terms: In an ELISA, binding on a coated surface is turned into a signal by an enzyme label.

Assay [1] deals with T1, CD81 (UniProt P60033 1-236, limits assumed).
T1 construct: whole, on cells; also called CD81 receptor
T1 sequence (looked up): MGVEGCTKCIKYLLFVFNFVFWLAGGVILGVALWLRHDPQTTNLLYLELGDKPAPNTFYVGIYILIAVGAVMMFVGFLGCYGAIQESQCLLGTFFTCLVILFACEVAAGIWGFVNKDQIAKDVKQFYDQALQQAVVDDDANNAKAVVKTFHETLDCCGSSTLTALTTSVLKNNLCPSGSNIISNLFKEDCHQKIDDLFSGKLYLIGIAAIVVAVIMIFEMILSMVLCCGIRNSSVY

Assay [2] concerns the target T1, CD81. The source holds these as a separate data set.
The target of assay [3] is T1, CD81. This is another data set of the same source.

Read-outs that look alike come from different tables or passages of the source.

B1: CD81K13 HC 04-hVH_1_69 / LC CD81K13 (antibody, V domains shown)
VH: EVQLVESGGGLVQPGRSLRLSCTASGFNFKDSYLHWVRQAPGQGLEWMGRIDTGNGNVKFDPKFQGRVTITADESTSTAYMELSSLRSEDTAVYYCVPYGYGFHSWGQGTLVTVSS
VL: DIQMTQSPASLSVSVGETVTITCRASENIYRTLAWYLQKQGKSPQLLVYGATTLADGVPSRFSGSGSGTQYYLKINSLQSEDFGTYHCQHFWGTPWTFGGGTKVEIK
notes: human constant region
Molecule B1 returned an ELISA data in assay [1] of 0.776.

B2: CD81K13 HC 04-hVH_1_69 / LC 01-hVK_3_15 (antibody, V domains shown)
VH: EVQLVESGGGLVQPGRSLRLSCTASGFNFKDSYLHWVRQAPGQGLEWMGRIDTGNGNVKFDPKFQGRVTITADESTSTAYMELSSLRSEDTAVYYCVPYGYGFHSWGQGTLVTVSS
VL: EIVMTQSPATLSVSPGERATLSCRASENIYRTLAWYQQKPGQAPRLLIYGATTRATGIPARFSGSGSGTEFTLTISSLQSEDFGVYYCQHFWGTPWTFGQGTKVEIK
notes: human constant region
As for B2, the ELISA data in assay [1] amounted to 0.513.

B3: CD81K13 HC 04-hVH_1_69 / LC 1c-hVK_3_15 (antibody, V domains shown)
VH: EVQLVESGGGLVQPGRSLRLSCTASGFNFKDSYLHWVRQAPGQGLEWMGRIDTGNGNVKFDPKFQGRVTITADESTSTAYMELSSLRSEDTAVYYCVPYGYGFHSWGQGTLVTVSS
VL: EIVMTQSPATLSVSPGERATLSCRASENIYRTLAWYQQKPGQAPRLLIYGATTLADGIPARFSGSGSGTEFTLTISSLQSEDFGVYYCQHFWGTPWTFGQGTKVEIK
notes: human constant region
In assay [1], B3 returned an ELISA data of 0.395.

B4: CD81K13 HC 04-hVH_1_69 / LC 1b-hVK_3_15 (antibody, V domains shown)
VH: EVQLVESGGGLVQPGRSLRLSCTASGFNFKDSYLHWVRQAPGQGLEWMGRIDTGNGNVKFDPKFQGRVTITADESTSTAYMELSSLRSEDTAVYYCVPYGYGFHSWGQGTLVTVSS
VL: EIVMTQSPATLSVSPGERATLSCRASENIYRTLAWYQQKPGQAPRLLIYGATTLADGIPARFSGSGSGTEFTLTISSLQSEDFAVYYCQHFWGTPWTFGQGTKVEIK
notes: human constant region
The molecule B4 showed an ELISA data in assay [1] of 0.277.

B5: CD81K13 HC 07-hVH_1_3 / LC 04-hVK_1_9 (antibody, V domains shown)
VH: QVQLVQSGAEVKKPGASVKVSCKASGYTFKDSYLHWVRQAPGQGLEWMGRIDTGNGNVKFDPKFQGRVTITTDTSASTAYMELSSLRSEDTAVYYCAPYGYGFHSWGQGTLVTVSS
VL: DIQLTQSPSFLSASVGDRVTITCRASENIYRTLAWYQQKPGKAPKLLIYAATTLASGVPSRFSGSGSGTEFTLTISSLQPEDFGTYYCQHFWGTPWTFGQGTKVEIK
notes: human constant region
The molecule B5 displayed an ELISA data in assay [1] of 0.141.

B6: CD81K13 HC 04-hVH_1_69 / LC 06-hVK_1_39 (antibody, V domains shown)
VH: EVQLVESGGGLVQPGRSLRLSCTASGFNFKDSYLHWVRQAPGQGLEWMGRIDTGNGNVKFDPKFQGRVTITADESTSTAYMELSSLRSEDTAVYYCVPYGYGFHSWGQGTLVTVSS
VL: DIQMTQSPSSLSASVGDRVTITCRASENIYRTLAWYQQKPGKAPKLLIYAATTLASGVPSRFSGSGSGTDFTLTISSLQPEDFGTYYCQHFWGTPWTFGQGTKVEIK
notes: human constant region
As to B6, in assay [1], the ELISA data is 0.386.

B7: CD81K13 HC 04-hVH_1_69 / LC 03-hVK_1_9 (antibody, V domains shown)
VH: EVQLVESGGGLVQPGRSLRLSCTASGFNFKDSYLHWVRQAPGQGLEWMGRIDTGNGNVKFDPKFQGRVTITADESTSTAYMELSSLRSEDTAVYYCVPYGYGFHSWGQGTLVTVSS
VL: DIQLTQSPSFLSASVGDRVTITCRASENIYRTLAWYQQKPGKAPKLLIYAATTLASGVPSRFSGSGSGTEFTLTISSLQPEDFATYYCQHFWGTPWTFGQGTKVEIK
notes: human constant region
Consider B7, for which, in assay [1], the ELISA data amounted to 0.52.

B8: CD81K13 HC 04-hVH_1_69 / LC 04-hVK_1_9 (antibody, V domains shown)
VH: EVQLVESGGGLVQPGRSLRLSCTASGFNFKDSYLHWVRQAPGQGLEWMGRIDTGNGNVKFDPKFQGRVTITADESTSTAYMELSSLRSEDTAVYYCVPYGYGFHSWGQGTLVTVSS
VL: DIQLTQSPSFLSASVGDRVTITCRASENIYRTLAWYQQKPGKAPKLLIYAATTLASGVPSRFSGSGSGTEFTLTISSLQPEDFGTYYCQHFWGTPWTFGQGTKVEIK
notes: human constant region
Turning to B8, the ELISA data in assay [1] came to 0.459.

B9: CD81K13 HC 04-hVH_1_69 / LC 5b-hVK_1_39-GA (antibody, V domains shown)
VH: EVQLVESGGGLVQPGRSLRLSCTASGFNFKDSYLHWVRQAPGQGLEWMGRIDTGNGNVKFDPKFQGRVTITADESTSTAYMELSSLRSEDTAVYYCVPYGYGFHSWGQGTLVTVSS
VL: DIQMTQSPSSLSASVGDRVTITCRASENIYRTLAWYQQKPGKAPKLLIYGATTLADGVPSRFSGSGSGTDFTLTISSLQPEDFATYYCQHFWGTPWTFGQGTKVEIK
notes: human constant region
For B9, the ELISA data in assay [1] amounted to 0.403.

B10: CD81K13 HC 04-hVH_1_69 / LC 05-hVK_1_39 (antibody, V domains shown)
VH: EVQLVESGGGLVQPGRSLRLSCTASGFNFKDSYLHWVRQAPGQGLEWMGRIDTGNGNVKFDPKFQGRVTITADESTSTAYMELSSLRSEDTAVYYCVPYGYGFHSWGQGTLVTVSS
VL: DIQMTQSPSSLSASVGDRVTITCRASENIYRTLAWYQQKPGKAPKLLIYAATTLASGVPSRFSGSGSGTDFTLTISSLQPEDFATYYCQHFWGTPWTFGQGTKVEIK
notes: human constant region
In assay [1], B10 returned an ELISA data of 0.776.

B11: CD81K13 HC 04-hVH_1_69 / LC 5b-hVK_1_39 (antibody, V domains shown)
VH: EVQLVESGGGLVQPGRSLRLSCTASGFNFKDSYLHWVRQAPGQGLEWMGRIDTGNGNVKFDPKFQGRVTITADESTSTAYMELSSLRSEDTAVYYCVPYGYGFHSWGQGTLVTVSS
VL: DIQMTQSPSSLSASVGDRVTITCRASENIYRTLAWYQQKPGKAPKLLIYGATTLADGVPSRFSGSGSGTDFTLTISSLQPEDFATYYCQHFWGTPWTFGQGTKVEIK
notes: human constant region
Take B11: in assay [1], the ELISA data was determined as 0.428.

B12: CD81K13 HC 07-hVH_1_3 / LC 5b-hVK_1_39-GA (antibody, V domains shown)
VH: QVQLVQSGAEVKKPGASVKVSCKASGYTFKDSYLHWVRQAPGQGLEWMGRIDTGNGNVKFDPKFQGRVTITTDTSASTAYMELSSLRSEDTAVYYCAPYGYGFHSWGQGTLVTVSS
VL: DIQMTQSPSSLSASVGDRVTITCRASENIYRTLAWYQQKPGKAPKLLIYGATTLADGVPSRFSGSGSGTDFTLTISSLQPEDFATYYCQHFWGTPWTFGQGTKVEIK
notes: human constant region
In the case of B12, the ELISA data in assay [1] stood at 0.363.

B13: CD81K13 HC 07-hVH_1_3 / LC 07-hVK_1_27 (antibody, V domains shown)
VH: QVQLVQSGAEVKKPGASVKVSCKASGYTFKDSYLHWVRQAPGQGLEWMGRIDTGNGNVKFDPKFQGRVTITTDTSASTAYMELSSLRSEDTAVYYCAPYGYGFHSWGQGTLVTVSS
VL: DIQMTQSPSSLSASVGDRVTITCRASENIYRTLAWYQQKPGKVPKLLIYAATTLASGVPSRFSGSGSGTDFTLTISSLQPEDVGTYYCQKFWGTPWTFGQGTKVEIK
notes: human constant region
B13 came in with an ELISA data in assay [1] of 0.073.

B14: CD81K13 HC 07-hVH_1_3 / LC 06-hVK_1_39 (antibody, V domains shown)
VH: QVQLVQSGAEVKKPGASVKVSCKASGYTFKDSYLHWVRQAPGQGLEWMGRIDTGNGNVKFDPKFQGRVTITTDTSASTAYMELSSLRSEDTAVYYCAPYGYGFHSWGQGTLVTVSS
VL: DIQMTQSPSSLSASVGDRVTITCRASENIYRTLAWYQQKPGKAPKLLIYAATTLASGVPSRFSGSGSGTDFTLTISSLQPEDFGTYYCQHFWGTPWTFGQGTKVEIK
notes: human constant region
B14: in assay [1], the ELISA data turned out to be 0.269.

B15: CD81K13 HC 07-hVH_1_3 / LC 5b-hVK_1_39 (antibody, V domains shown)
VH: QVQLVQSGAEVKKPGASVKVSCKASGYTFKDSYLHWVRQAPGQGLEWMGRIDTGNGNVKFDPKFQGRVTITTDTSASTAYMELSSLRSEDTAVYYCAPYGYGFHSWGQGTLVTVSS
VL: DIQMTQSPSSLSASVGDRVTITCRASENIYRTLAWYQQKPGKAPKLLIYGATTLADGVPSRFSGSGSGTDFTLTISSLQPEDFATYYCQHFWGTPWTFGQGTKVEIK
notes: human constant region
Molecule B15 registered an ELISA data in assay [1] of 0.448.

B16: CD81K13 HC 07-hVH_1_3 / LC 05-hVK_1_39 (antibody, V domains shown)
VH: QVQLVQSGAEVKKPGASVKVSCKASGYTFKDSYLHWVRQAPGQGLEWMGRIDTGNGNVKFDPKFQGRVTITTDTSASTAYMELSSLRSEDTAVYYCAPYGYGFHSWGQGTLVTVSS
VL: DIQMTQSPSSLSASVGDRVTITCRASENIYRTLAWYQQKPGKAPKLLIYAATTLASGVPSRFSGSGSGTDFTLTISSLQPEDFATYYCQHFWGTPWTFGQGTKVEIK
notes: human constant region
With B16, the ELISA data in assay [1] was 0.4.

B17: CD81K04 HC JA_GG-14-hVH_1_69-GA / LC GG-04-hVK_4_1 (antibody, V domains shown)
VH: QVQLVQSGAEVKKPGSSVKVSCKASGYTFSSSWMNWVRQAPGQGLEWMGRIYSGDGDAIYNGKFKGKATITADESTSTAYMELSSLRSEDTAVYYCAREGKTGDLLLRSWGQGTLVTVSS
VL: DIVMTQSPDSLAVSLGERATINCKSSKSVSTSIYSYLAWYQQKPGQPPKLLIYYASTRESGVPDRFSGSGSGTDFTLTISSLQAEDVAVYYCQHSREFPYTFGQGTKLEIK
notes: human constant region
On to B17, for which the ELISA data in assay [2] turned out to be 0.107; in assay [3], 0.12.

B18: CD81K04 HC JA_GG-14-hVH_1_69-GA / LC JA_GG-07-hVK_7_3 (antibody, V domains shown)
VH: QVQLVQSGAEVKKPGSSVKVSCKASGYTFSSSWMNWVRQAPGQGLEWMGRIYSGDGDAIYNGKFKGKATITADESTSTAYMELSSLRSEDTAVYYCAREGKTGDLLLRSWGQGTLVTVSS
VL: DIVLTQSPASLAVSPGQRATITCRASKSVSTSIYSYMHWYQQKPGQPPKLLIKYASNKDTGVPARFSGSGSGTDFTLTINPVEANDAANYYCLHSREFPYTFGQGTKLEIK
notes: human constant region
As for B18, the ELISA data in assay [2] amounted to 0.107; in assay [3], 0.125.

The record behind these values is patent US20200377590A1 (Hoffmann-La Roche, published 2020).
